For assay [1], the target named is CD3 (on Jurkat cells) (UniProt P07766). The experiment in a line: FACS, HIT3a alone on Jurkat cells, FITC anti-mouse IgG. (In flow cytometry, cells or beads pass a laser one at a time.)
For assay [2], the target named is CD19 (on Raji cells) (UniProt P15391). The experiment in a line: FACS, HIT19a alone on Raji cells, FITC anti-mouse IgG.
Assay [3] deals with CD3 (on Jurkat cells) (UniProt P07766). The experiment in a line: FACS competition on Jurkat cells: ds-Diabody mixed with competitor HIT3a, HIT3a detected with FITC anti-mouse IgG.
Assay [4] concerns the target CD19 (on Raji cells) (UniProt P15391). The experiment in a line: FACS competition on Raji cells: ds-Diabody mixed with competitor HIT19a, HIT19a detected with FITC anti-mouse IgG.

The values below come from patent CN101899115A.

As for 抗CD3鼠源性单克隆抗体HIT3a (antibody), in the assay with CD3 (on Jurkat cells) [1], the 细胞结合阳性率 came out at 100%.

抗CD19鼠源性单克隆抗体HIT19a (antibody) had a 细胞结合阳性率 in the assay with CD19 (on Raji cells) [2] of 100%.

B1: 二硫键稳定的抗CD3-抗CD19微型双功能抗体 (disulfide-stabilized anti-CD3/anti-CD19 diabody) (bispecific antibody)
chain 1: ADIELTQSPAIMSASPGEKVTMTCSASSSVSYMNWYQQKSGTSPKRWIYDTSKLASGVPARFSGSGSGTSYSLTISGMEAEDAATYYCQQWSSNPFTFGCGTKLELKRGGGGSQVQLQQSGAELVRPGSSVKISCKASGYAFSSYWMNWVKQRPGQGLEWIGQIYPGDGDTNYNGKFKGQATLTADKSSSTAYMQLSGLTSEDSAVYFCARKTISSVVDFYFDYWGQGTTLTVSS
chain 2: DIVLTQSPKFMSTSVGDRVSSPAKASQNVGTNVAWYQQKPGQSPKPLIYSATYRNSGVPDRFTGSGSGTDFTLTITNVQSKDLADYFCQQYNRYPYTSGGGTKLEIKRGGGGSQVQLQQSGAELARPGASVKMSCKASGYTFTRYTMHWVKQRPGQCLEWIGYINPSRGYTNYNQKFKDKATLTTDKSSSTAYMELTRLTSEDSAVYYCARYYDDHYSLDYWGQGTTVTVSS
Molecule B1 showed a 细胞结合阳性率 (HIT3a signal remaining with ds-Diabody present) with CD3 (on Jurkat cells) [3] of 51.1%. This molecule also had a 细胞结合阳性率 (HIT19a signal remaining with ds-Diabody present) in the assay with CD19 (on Raji cells) [4] of 63.3%.
